Paper PMC3624760

Assays:
[1] = biological target: DNA polymerase beta D160N (UniProt P06746 1-335, D160N); assay: active site titration
DNA polymerase beta WT = DNA polymerase beta WT (UniProt P06746 1-335); assay: active site titration

B1: 1 bp-gap (dsDNA)
DNA 1: CGCGCCAATCGAGCCATGTCGT
DNA 2: GTCAACGACCCACCATTCAAGA
DNA 3: TCTTGAATGGTGGGTCGTTGACGACGACATGGCTCGATTGGCGCG
[1]
  Kd: 21 nM
DNA polymerase beta WT
  Kd: 16 nM
